The target in one data set is Cep3ΔN (Saccharomyces cerevisiae, UniProt P40969 47-608). Put plainly: EMSA; DNA 1.6 uM; EMSA: 25 mM HEPES pH 8.0, 200 mM KCl, 2 mM DTT, 10% glycerol, 0.02% NP-40, 10 mM MgCl2, 10 uM ZnCl2; room temperature 45 min; native PAGE at 4 C. The following applies: protein: recombinant; tags: N-terminal His; chain copies: 2; label: fluorescent label, singly or doubly labeled. (Mobility shift assays separate free from complexed probe on a gel.)

Data set [1] concerns the target T1, Ctf13;Skp1;Cep3ΔN (Saccharomyces cerevisiae;Saccharomyces …, UniProt P35203;P52286;P40969 1-478;1-194;47-608, ||). The description is as above. The following applies: protein: recombinant;recombinant;recombinant; tags: C-terminal CBP;;N-terminal His; copies: 1;1;2; label: fluorescent label, singly or doubly labeled.
For the next data set, the target named is Cep3 full length (Saccharomyces cerevisiae, UniProt P40969 1-608). As to the kind of experiment: EMSA; DNA 1.6 uM, protein 6.4 uM; binds tightly; EMSA: 25 mM HEPES pH 8.0, 200 mM KCl, 2 mM DTT, 10% glycerol, 0.02% NP-40, 10 mM MgCl2, 10 uM ZnCl2; room temperature 45 min; native PAGE at 4 C. The following applies: protein: recombinant; tags: N-terminal His; chain copies: 2; label: fluorescent label, singly or doubly labeled.
Sequence of Cep3 full length (P40969 whole entry): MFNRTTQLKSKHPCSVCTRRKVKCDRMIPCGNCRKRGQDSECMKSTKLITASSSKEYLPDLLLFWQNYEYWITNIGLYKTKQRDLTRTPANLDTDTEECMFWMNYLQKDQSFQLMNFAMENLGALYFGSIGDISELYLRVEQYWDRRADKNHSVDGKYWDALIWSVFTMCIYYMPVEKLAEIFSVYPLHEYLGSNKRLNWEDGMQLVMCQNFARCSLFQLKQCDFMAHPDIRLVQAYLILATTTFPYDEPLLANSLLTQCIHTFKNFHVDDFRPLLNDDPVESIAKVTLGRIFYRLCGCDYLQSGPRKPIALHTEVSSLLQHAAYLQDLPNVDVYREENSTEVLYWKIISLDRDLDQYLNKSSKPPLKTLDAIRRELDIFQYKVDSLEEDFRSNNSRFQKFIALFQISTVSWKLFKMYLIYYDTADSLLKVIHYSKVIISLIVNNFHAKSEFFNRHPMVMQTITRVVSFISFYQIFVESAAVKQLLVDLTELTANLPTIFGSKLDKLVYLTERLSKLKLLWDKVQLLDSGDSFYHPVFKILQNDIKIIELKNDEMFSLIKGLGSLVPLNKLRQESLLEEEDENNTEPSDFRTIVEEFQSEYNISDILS

Data set [2] deals with T1, Ctf13;Skp1;Cep3ΔN. As to the kind of experiment: competition; 80 uM unlabeled competitor, 50x; competes labeled CDEIII; EMSA: 25 mM HEPES pH 8.0, 200 mM KCl, 2 mM DTT, 10% glycerol, 0.02% NP-40, 10 mM MgCl2, 10 uM ZnCl2; room temperature 45 min; native PAGE at 4 C. The following applies: protein: recombinant;recombinant;recombinant; tags: C-terminal CBP;;N-terminal His; copies: 1;1;2.

T1 sequence (P35203 whole entry, stated change not applied, chain 1 of 3): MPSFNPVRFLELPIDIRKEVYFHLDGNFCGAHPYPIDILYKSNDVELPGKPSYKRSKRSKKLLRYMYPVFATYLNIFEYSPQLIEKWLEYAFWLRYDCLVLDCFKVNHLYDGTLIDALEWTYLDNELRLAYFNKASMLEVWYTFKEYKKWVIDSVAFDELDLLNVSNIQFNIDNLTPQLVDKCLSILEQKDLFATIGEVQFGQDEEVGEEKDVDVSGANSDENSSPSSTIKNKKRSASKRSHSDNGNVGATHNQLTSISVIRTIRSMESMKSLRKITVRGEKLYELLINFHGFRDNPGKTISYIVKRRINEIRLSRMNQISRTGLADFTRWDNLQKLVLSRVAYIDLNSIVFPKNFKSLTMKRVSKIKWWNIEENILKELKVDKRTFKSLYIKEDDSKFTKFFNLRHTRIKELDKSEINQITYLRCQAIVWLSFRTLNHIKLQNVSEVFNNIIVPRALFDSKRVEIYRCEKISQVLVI
T1 sequence (P52286 whole entry, stated change not applied, chain 2 of 3): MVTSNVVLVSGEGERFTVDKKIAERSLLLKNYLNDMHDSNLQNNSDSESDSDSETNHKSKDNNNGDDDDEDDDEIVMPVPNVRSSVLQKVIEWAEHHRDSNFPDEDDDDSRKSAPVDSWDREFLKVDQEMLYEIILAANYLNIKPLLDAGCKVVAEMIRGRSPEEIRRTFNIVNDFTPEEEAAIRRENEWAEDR
T1 sequence (P40969 47-608, stated change not applied, chain 3 of 3): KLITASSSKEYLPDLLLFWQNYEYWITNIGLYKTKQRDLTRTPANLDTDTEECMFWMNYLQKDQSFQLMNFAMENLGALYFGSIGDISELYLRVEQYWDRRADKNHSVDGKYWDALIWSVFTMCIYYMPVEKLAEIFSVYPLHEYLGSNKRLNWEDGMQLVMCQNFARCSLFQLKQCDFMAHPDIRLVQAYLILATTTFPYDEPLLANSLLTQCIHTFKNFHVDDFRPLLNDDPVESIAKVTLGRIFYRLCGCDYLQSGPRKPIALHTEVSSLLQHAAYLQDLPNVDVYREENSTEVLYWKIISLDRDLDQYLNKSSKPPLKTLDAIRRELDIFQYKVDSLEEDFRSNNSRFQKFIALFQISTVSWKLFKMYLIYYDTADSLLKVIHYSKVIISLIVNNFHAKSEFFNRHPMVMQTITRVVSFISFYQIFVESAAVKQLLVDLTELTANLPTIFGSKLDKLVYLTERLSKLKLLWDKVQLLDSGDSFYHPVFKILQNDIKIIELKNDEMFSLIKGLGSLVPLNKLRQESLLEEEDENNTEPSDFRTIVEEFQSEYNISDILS
Sequence of Cep3ΔN (P40969 47-608, stated change not applied): as the sequence (P40969 47-608, stated change not applied, chain 3 of 3) above

B1: CDEIII labeled (dsDNA)
DNA 1: AATATTAGTGTATTTGATTTCCGAAAGTTAAA
DNA 2: TTTAACTTTCGGAAATCAAATACACTAATATT
For B1, the binding result with Cep3ΔN is listed as “no binding”; with Ctf13;Skp1;Cep3ΔN [1], “binds”; with Cep3 full length it was “binds”.

B2: CDEIII unlabeled competitor (dsDNA)
DNA 1: AATATTAGTGTATTTGATTTCCGAAAGTTAAA
DNA 2: TTTAACTTTCGGAAATCAAATACACTAATATT
For the molecule B2, the binding result in the data set with Ctf13;Skp1;Cep3ΔN [2] is reported as “binds”.
